The values below come from patent US20140127724A1.

Assay [1] concerns the target human fragile X mental retardation protein (FMRP) (human) (UniProt Q06787). The assay is described as follows: Luminex capture immunoassay, 80 ug human lymphoblastoid control extract.
The target of assay [2] is mouse fragile X mental retardation protein (FMRP) (mouse) (UniProt P35922). The assay is described as follows: Luminex capture immunoassay, 1.25 ug mouse brain extract.
Assay [3] has the same target. The assay is described as follows: Luminex capture immunoassay, 20 ug mouse brain extract.
For assay [4] the target is unchanged. The assay is described as follows: Luminex capture immunoassay, 10 ug mouse brain extract.
For assay [5], the target named is human fragile X mental retardation protein (FMRP) (human) (UniProt Q06787). The assay is described as follows: Luminex capture immunoassay, 10 ug human lymphoblastoid control extract.
Assay [6] has the same target. The assay is described as follows: Luminex capture immunoassay, 5 ug human lymphoblastoid control extract.
The target in assay [7] is mouse fragile X mental retardation protein (FMRP) (mouse) (UniProt P35922). The assay is described as follows: Luminex capture immunoassay, 2.5 ug mouse brain extract.
For assay [8], the target named is human fragile X mental retardation protein (FMRP) (human) (UniProt Q06787). The assay is described as follows: Luminex capture immunoassay, 20 ug human lymphoblastoid control extract.
The target is the same in assay [9]. The assay is described as follows: Luminex capture immunoassay, 2.5 ug human lymphoblastoid control extract.
Assay [10] addresses mouse fragile X mental retardation protein (FMRP) (mouse) (UniProt P35922). The assay is described as follows: Luminex capture immunoassay, 40 ug mouse brain extract.
In assay [11] the target is human fragile X mental retardation protein (FMRP) (human) (UniProt Q06787). The assay is described as follows: Luminex capture immunoassay, 1.25 ug human lymphoblastoid control extract.
Assay [12] concerns the target mouse fragile X mental retardation protein (FMRP) (mouse) (UniProt P35922). The assay is described as follows: Luminex capture immunoassay, 80 ug mouse brain extract.
Assay [13] has as its target human fragile X mental retardation protein (FMRP) (human) (UniProt Q06787). The assay is described as follows: Luminex capture immunoassay, 40 ug human lymphoblastoid control extract.
Assay [14] addresses mouse fragile X mental retardation protein (FMRP) (mouse) (UniProt P35922). The assay is described as follows: Luminex capture immunoassay, 5 ug mouse brain extract.

“And” between values parts separate entries of the source, which are not always exact repeats. Identical values can stand only once.

As to anti-PrP mAb 3F4 (antibody), the phycoerythrin fluorescence (MFI) in assay [1] is 6 MFI; in [2], 7 MFI and 5 MFI; in assay [3] it was 17.5 MFI and 18 MFI; in assay [4], 11 MFI and 10 MFI; in assay [5] it was 5 MFI and 4 MFI; in [6], 5 MFI. Also, the phycoerythrin fluorescence (MFI) in [7] was 7 MFI and 6 MFI; in [8], 5 MFI and 6 MFI; in assay [9] it was 6 MFI; in assay [10], 36 MFI and 39.5 MFI; in assay [11] it was 5 MFI; in assay [12], 51 MFI and 49 MFI. The phycoerythrin fluorescence (MFI) was 5 MFI and 6 MFI in [13]; 7 MFI and 8 MFI in assay [14].
